{
  "source": "patent US20020159972A1",
  "about": "(PENN STATE RESEARCH FOUNDATION, published 2002)",
  "binders": {"B1": {"name": "recombinant hIL4 (human interleukin 4) (ligand, UniProt P05112 25-153, looked up)", "chain": "HKCDITLQEIIKTLNSLTEQKTLCTELTVTDIFAASKNTTEKETFCRAATVLRQFYSHHEKDTRCLGATAQQFHRHKQLIRFLKRLDRNLWGLAGLNSCPVKEANQSTLENFLERLKTIMREKYSKCSS"}},
  "molecular_target": "T1, restricted (IL4 independent) hIL13 receptor (human, UniProt Q14627 27-380)",
  "T1 construct": "whole, on cells; also called restricted receptor; restrictive receptor",
  "T1 sequence (looked up)": "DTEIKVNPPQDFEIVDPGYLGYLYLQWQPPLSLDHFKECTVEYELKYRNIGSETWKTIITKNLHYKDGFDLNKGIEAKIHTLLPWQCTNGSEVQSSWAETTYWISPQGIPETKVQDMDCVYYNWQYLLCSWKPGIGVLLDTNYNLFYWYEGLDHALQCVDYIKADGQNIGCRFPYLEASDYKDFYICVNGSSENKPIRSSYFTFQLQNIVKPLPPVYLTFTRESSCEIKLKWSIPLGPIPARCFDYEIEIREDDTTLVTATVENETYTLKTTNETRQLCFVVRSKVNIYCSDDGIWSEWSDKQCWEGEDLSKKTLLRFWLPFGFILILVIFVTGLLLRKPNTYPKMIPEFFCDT",
  "test": "autoradiography competition on GBM tissue sections against ^125I-hIL13.E13Y",
  "method": "Serial tissue sections were cut (10 mm) on a cryostat, thaw-mounchrome alumme-alum coated slides, and stored at 4° C. until analyzed. […] To dissociate non-specifically bound radioligand, sections were rinsed in four consecutive changes (5 minutes each) of ice-cold 0.1 M PBS. […] After drying, labeled sections were apposed to Kodak autoradiography film at −65° C. for 8 hr to 11 days.",
  "data": [
    {"binder": "B1", "values": [
      {"measurement": "binding result", "result": "no binding (tested: 100- to 500-fold molar excess)"}
    ]}
  ]
}
